Reference: FireProtDB (doi:10.1038/nsb0196-54)

B1: Regulatory protein rop, P03051 (parent)
chain: MTKQEKTALNMARFIRSQTLTLLEKLNELDADEQADICESLHDHADELYRSCLARFGDDGENL

Variants of: B1
Conditions: Escherichia coli, pH 7, Thermal, CD, Sodium phosphate 10 mM, NaCl 350 mM, structure 1ROP, whole UniProt chain shown; for ddG of mutation (higher = less stable): 69 °C

D30S
ddG of mutation (higher = less stable): -1 kcal/mol
Tm: 74.7 °C
change of melting temperature, mutant - wild type (higher = more stable): 6 °C

D30C
ddG of mutation (higher = less stable): -0.8 kcal/mol
Tm: 74 °C
change of melting temperature, mutant - wild type (higher = more stable): 5.3 °C

D30A
ddG of mutation (higher = less stable): -0.3 kcal/mol
Tm: 71.2 °C
change of melting temperature, mutant - wild type (higher = more stable): 2.5 °C

D30V
ddG of mutation (higher = less stable): 0.4 kcal/mol
Tm: 66.6 °C
change of melting temperature, mutant - wild type (higher = more stable): -2.1 °C

D30N
ddG of mutation (higher = less stable): -0.8 kcal/mol
Tm: 73.8 °C
change of melting temperature, mutant - wild type (higher = more stable): 5.1 °C

D30W
ddG of mutation (higher = less stable): 0.4 kcal/mol
Tm: 65.9 °C
change of melting temperature, mutant - wild type (higher = more stable): -2.8 °C

D30Q
ddG of mutation (higher = less stable): -1.8 kcal/mol
Tm: 79.1 °C
change of melting temperature, mutant - wild type (higher = more stable): 10.4 °C

D30Y
ddG of mutation (higher = less stable): -0.2 kcal/mol
Tm: 70.4 °C
change of melting temperature, mutant - wild type (higher = more stable): 1.7 °C

D30M
ddG of mutation (higher = less stable): -0.6 kcal/mol
Tm: 72.7 °C
change of melting temperature, mutant - wild type (higher = more stable): 4 °C

D30G
ddG of mutation (higher = less stable): -2 kcal/mol
Tm: 80.3 °C
change of melting temperature, mutant - wild type (higher = more stable): 11.6 °C

D30T
ddG of mutation (higher = less stable): 0.4 kcal/mol
Tm: 66.6 °C
change of melting temperature, mutant - wild type (higher = more stable): -2.1 °C

D30R
ddG of mutation (higher = less stable): -0.8 kcal/mol

D30E
ddG of mutation (higher = less stable): -1 kcal/mol
Tm: 74.9 °C
change of melting temperature, mutant - wild type (higher = more stable): 6.2 °C

D30P
ddG of mutation (higher = less stable): 1.6 kcal/mol
Tm: 58.9 °C
change of melting temperature, mutant - wild type (higher = more stable): -9.8 °C

D30K
ddG of mutation (higher = less stable): -0.9 kcal/mol
Tm: 74.6 °C
change of melting temperature, mutant - wild type (higher = more stable): 5.9 °C

D30I
ddG of mutation (higher = less stable): 0.8 kcal/mol
Tm: 63.4 °C
change of melting temperature, mutant - wild type (higher = more stable): -5.3 °C

D30H
ddG of mutation (higher = less stable): -0.9 kcal/mol
Tm: 74.5 °C
change of melting temperature, mutant - wild type (higher = more stable): 5.8 °C

D30F
ddG of mutation (higher = less stable): 0.1 kcal/mol
Tm: 68.3 °C
change of melting temperature, mutant - wild type (higher = more stable): -0.4 °C

D30L
ddG of mutation (higher = less stable): 0.1 kcal/mol
Tm: 68.4 °C
change of melting temperature, mutant - wild type (higher = more stable): -0.3 °C
